Source: the supplement of paper PMC9112550, “Optimization of the antimicrobial peptide Bac7 by deep mutational scanning” (BMC Biology, 2022)

Test system: Escherichia coli TOP10
Assay: shrunken log2 fold change of peptide-encoding DNA abundance (4.5 h post-induction vs induction); higher = less antimicrobial activity (less host growth inhibition)
Settings: time post-induction: 4.5 h; library: site-saturation at positions 5, 18, 19, 20
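Note: peptides expressed intracellularly from a pBAD plasmid library in pooled LB shake-flask culture, induced with 0.3% L-arabinose, DNA abundance read by NGS, three biological replicates, DESeq2 with apeglm shrinkage.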

Row | Sequence | shrunken log2 fold change
1 | RRIRSRPPRLPRPRPRPEHPPRP | 0.166
2 | RRIRSRPPRLPRPRPRPEIAPRP | 0.00181
3 | RRIRSRPPRLPRPRPRPEIQPRP | 0.00278
4 | RRIRSRPPRLPRPRPRPELVPRP | 0.111
5 | RRIRSRPPRLPRPRPRPELWPRP | 0.743
6 | RRIRSRPPRLPRPRPRPEMHPRP | 0.0756
7 | RRIRSRPPRLPRPRPRPEMWPRP | 0.67
8 | RRIRSRPPRLPRPRPRPENKPRP | -0.125
9 | RRIRSRPPRLPRPRPRPEPYPRP | 0.0691
10 | RRIRSRPPRLPRPRPRPERDPRP | 0.138
11 | RRIRSRPPRLPRPRPRPETMPRP | 0.205
12 | RRIRSRPPRLPRPRPRPETQPRP | 0.29
13 | RRIRSRPPRLPRPRPRPEVGPRP | 0.726
14 | RRIRSRPPRLPRPRPRPEVIPRP | 0.18
15 | RRIRSRPPRLPRPRPRPEYLPRP | -0.0519
16 | RRIRSRPPRLPRPRPRPEYQPRP | 0.0227
17 | RRIRSRPPRLPRPRPRPEYTPRP | -0.0105
18 | RRIRSRPPRLPRPRPRPFCEPRP | -0.0573
19 | RRIRSRPPRLPRPRPRPFCQPRP | -0.0847
20 | RRIRSRPPRLPRPRPRPFEAPRP | 0.14
21 | RRIRSRPPRLPRPRPRPFEFPRP | -0.42
22 | RRIRSRPPRLPRPRPRPFEVPRP | -0.109
23 | RRIRSRPPRLPRPRPRPFFYPRP | -0.17
24 | RRIRSRPPRLPRPRPRPFGCPRP | 0.029
25 | RRIRSRPPRLPRPRPRPFGDPRP | -0.0872

Row | Sequence | shrunken log2 fold change
26 | RRIRSRPPRLPRPRPRPFGWPRP | 0.0625
27 | RRIRSRPPRLPRPRPRPFHIPRP | -1.07
28 | RRIRSRPPRLPRPRPRPFIAPRP | -0.275
29 | RRIRSRPPRLPRPRPRPFIDPRP | -0.0941
30 | RRIRSRPPRLPRPRPRPFLAPRP | -0.311
31 | RRIRSRPPRLPRPRPRPFLPPRP | -0.305
32 | RRIRSRPPRLPRPRPRPFLSPRP | -0.063
33 | RRIRSRPPRLPRPRPRPFLTPRP | -0.437
34 | RRIRSRPPRLPRPRPRPFPQPRP | -0.201
35 | RRIRSRPPRLPRPRPRPFQFPRP | -0.157
36 | RRIRSRPPRLPRPRPRPFRAPRP | -0.0568
37 | RRIRSRPPRLPRPRPRPFRIPRP | 0.0361
38 | RRIRSRPPRLPRPRPRPFSRPRP | -0.347
39 | RRIRSRPPRLPRPRPRPFTTPRP | -0.392
40 | RRIRSRPPRLPRPRPRPFWLPRP | 0.26
41 | RRIRSRPPRLPRPRPRPFWSPRP | -0.183
42 | RRIRSRPPRLPRPRPRPFYPPRP | -0.259
43 | RRIRSRPPRLPRPRPRPGAFPRP | 0.0905
44 | RRIRSRPPRLPRPRPRPGATPRP | 0.584
45 | RRIRSRPPRLPRPRPRPGAWPRP | 0.342
46 | RRIRSRPPRLPRPRPRPGCQPRP | 0.287
47 | RRIRSRPPRLPRPRPRPGCYPRP | -0.173
48 | RRIRSRPPRLPRPRPRPGDWPRP | 0.223
49 | RRIRSRPPRLPRPRPRPGEAPRP | 0.287
50 | RRIRSRPPRLPRPRPRPGFSPRP | -0.0153

Row | Sequence | shrunken log2 fold change
51 | RRIRSRPPRLPRPRPRPGGIPRP | 0.274
52 | RRIRSRPPRLPRPRPRPGGMPRP | 0.446
53 | RRIRSRPPRLPRPRPRPGGRPRP | 0.284
54 | RRIRSRPPRLPRPRPRPGIWPRP | 0.123
55 | RRIRSRPPRLPRPRPRPGKLPRP | -0.0662
56 | RRIRSRPPRLPRPRPRPGKWPRP | -0.147
57 | RRIRSRPPRLPRPRPRPGLFPRP | 0.163
58 | RRIRSRPPRLPRPRPRPGLMPRP | 0.197
59 | RRIRSRPPRLPRPRPRPGLVPRP | 0.275
60 | RRIRSRPPRLPRPRPRPGMEPRP | 0.148
61 | RRIRSRPPRLPRPRPRPGMFPRP | 0.107
62 | RRIRSRPPRLPRPRPRPGMIPRP | -0.296
63 | RRIRSRPPRLPRPRPRPGMPPRP | -0.122
64 | RRIRSRPPRLPRPRPRPGNCPRP | -0.0261
65 | RRIRSRPPRLPRPRPRPGNDPRP | 0.111
66 | RRIRSRPPRLPRPRPRPGPVPRP | 0.384
67 | RRIRSRPPRLPRPRPRPGQMPRP | 0.206
68 | RRIRSRPPRLPRPRPRPGQNPRP | 0.323
69 | RRIRSRPPRLPRPRPRPGQQPRP | 0.0543
70 | RRIRSRPPRLPRPRPRPGRQPRP | -0.00462
71 | RRIRSRPPRLPRPRPRPGSCPRP | 0.0634
72 | RRIRSRPPRLPRPRPRPGSIPRP | -0.0732
73 | RRIRSRPPRLPRPRPRPGSLPRP | -0.0216
74 | RRIRSRPPRLPRPRPRPGTTPRP | 0.132
75 | RRIRSRPPRLPRPRPRPGWFPRP | 0.44
